Measured values taken from article PMC12697983 (PLOS Pathogens, 2025).

Molecular target: SARS-CoV-2 wild-type spike receptor-binding domain (WT-RBD) (SARS-CoV-2, UniProt P0DTC2)
Experiment: SPR
Conditions: both partners purified

B1: 1C4 (murine monoclonal antibody, IgG format) (antibody, V domains shown)
VH: QIQLVQSGPELKKPGETVKISCKASGYTFTDYGLNWVKQAPGKGLKWMGWINTYSGEPTYNDEFRGRFAFSLETSTITAYLKINNLKNEDTATYFCARGGNWDWYFDVWGAGTTVTVSS
VL: DIVLTQSPATLSVTPGDNVSLSCRASQIISNNLHWYQQKSHESPRLLIKYASQSISGIPSRFSGSGSGTDFTLSINSVETEDFGMYFCQQSNTWPLTCGSGTKLELN
B1 showed a Kd of 0.488 nM.
